From paper PMC11566906, “Transcription factor PbrERF114 is involved in the regulation of ethylene synthesis during pear fruit ripening”

Key:
PbrERF114 [1] = biological target: T1, PbrERF114 (pear, cultivar Cuiguan?, UniProt A0A5H2MWQ4 1-250); assay: EMSA; signal decreased with 10x, 50x, 200x cold probe; BLI: 137 mM NaCl, 4.3 mM Na2HPO4, 2.7 mM KCl, 1.4 mM KH2PO4, 0.02% Tween-20, pH 7.2 (PBS), streptavidin sensors, temperature not given; EMSA: LightShift Chemiluminescent EMSA kit, buffer not given; conditions: protein: recombinant; tags: His; pCold-TF vector (trigger factor fusion implied); label: biotin
PbrERF114 [2] = biological target: T1, PbrERF114; assay: BLI; saturated at 8382 nM; sentence names PbrERF24-His, but context and legend are PbrERF114; BLI: 137 mM NaCl, 4.3 mM Na2HPO4, 2.7 mM KCl, 1.4 mM KH2PO4, 0.02% Tween-20, pH 7.2 (PBS), streptavidin sensors, temperature not given; EMSA: LightShift Chemiluminescent EMSA kit, buffer not given; conditions: protein: recombinant; tags: His; pCold-TF vector (trigger factor fusion implied); label: biotin

T1 sequence (A0A5H2MWQ4 entry or part of it): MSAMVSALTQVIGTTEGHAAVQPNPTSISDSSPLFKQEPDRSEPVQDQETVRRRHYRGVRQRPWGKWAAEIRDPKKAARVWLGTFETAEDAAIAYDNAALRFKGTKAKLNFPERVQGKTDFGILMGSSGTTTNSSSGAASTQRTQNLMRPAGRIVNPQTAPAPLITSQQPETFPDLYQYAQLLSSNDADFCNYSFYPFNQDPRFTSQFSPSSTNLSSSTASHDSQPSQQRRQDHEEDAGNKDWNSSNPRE

B1: PbrACS3 promoter probe (PbrERF114 EMSA) (dsDNA)
DNA 1: TTACCATCTTAGGTGGCAGATGAGTTGGAC
DNA 2: GTCCAACTCATCTGCCACCTAAGATGGTAA
PbrERF114 [1]
  binding result: binds

B2: PbrERF24 promoter probe (dsDNA)
DNA 1: CCAGTTTACAATGGTGGCCAAGATTGTAAT
DNA 2: ATTACAATCTTGGCCACCATTGTAAACTGG
PbrERF114 [2]
  Kd: < 1000 nM
